Assay results as given in patent US20200024330A1.

Assays:
Experiment in all cases: cell-based or functional assay
[1] = molecular target: HIV-1 Env of isolate MGRM-D-004 (subtype D), on pseudovirus (HIV-1)
[2] = molecular target: HIV-1 Env of isolate MGRM-D-008 (subtype D), on pseudovirus (HIV-1)
[3] = molecular target: HIV-1 Env of isolate 92UG046 (subtype D), on pseudovirus (HIV-1)
[4] = molecular target: HIV-1 Env of isolate 92RW008 (clade A), on pseudovirus (HIV-1)
[5] = molecular target: HIV-1 Env of isolate 94UG103 (pseudovirus) (HIV-1)
[6] = molecular target: HIV-1 Env of isolate 92WR020 (pseudovirus) (HIV-1)
[7] = molecular target: HIV-1 Env of isolate APV_13 (HIV-1)
[8] = molecular target: HIV-1 Env of isolate 92TH021 (pseudovirus) (HIV-1)
[9] = molecular target: HIV-1 Env of isolate MG RM-A-012 (pseudovirus) (HIV-1)
[10] = molecular target: HIV-1 Env of isolate MGRM-D-001 (subtype D), on pseudovirus (HIV-1)
[11] = molecular target: HIV-1 Env of isolate MG RM-A-013 (pseudovirus) (HIV-1)
[12] = molecular target: HIV-1 Env of isolate MG RM-A-005 (pseudovirus) (HIV-1)
[13] = molecular target: HIV-1 Env of isolate MGRM-Chronic-B-004 (HIV-1)
[14] = molecular target: HIV-1 Env of isolate MGRM-Chronic-B-001 (HIV-1)
[15] = molecular target: HIV-1 Env of isolate VLGCA1 (pseudovirus) (HIV-1)
[16] = molecular target: HIV-1 Env of isolate MGRM-AE-003 (pseudovirus) (HIV-1)
[17] = molecular target: HIV-1 Env of isolate MGRM-AE-006 (pseudovirus) (HIV-1)
[18] = molecular target: HIV-1 Env of isolate 92UG001 (subtype D), on pseudovirus (HIV-1)
[19] = molecular target: HIV-1 92RW020 envelope glycoprotein (Env) on pseudovirus (HIV-1)
[20] = molecular target: HIV-1 Env of isolate 92UG037 (pseudovirus) (HIV-1)
[21] = molecular target: HIV-1 Env of isolate 93TH305 (HIV-1)
[22] = molecular target: HIV-1 Env of isolate CAAN.A2 (HIV-1)
[23] = molecular target: HIV-1 Env of isolate MG RM-A-006 (pseudovirus) (HIV-1)
[24] = molecular target: HIV-1 Env of isolate 92BR020 (HIV-1)
[25] = molecular target: HIV-1 Env of isolate 93WR029 (pseudovirus) (HIV-1)
[26] = molecular target: HIV-1 Env of isolate APV_6 (HIV-1)
[27] = molecular target: HIV-1 Env of isolate MGRM-AE-005 (pseudovirus) (HIV-1)
[28] = molecular target: HIV-1 Env of isolate MG RM-A-009 (pseudovirus) (HIV-1)
[29] = molecular target: HIV-1 Env of isolate MGRM-AE-002 (pseudovirus) (HIV-1)
[30] = molecular target: HIV-1 Env of isolate 92UG024 (subtype D), on pseudovirus (HIV-1)
[31] = molecular target: HIV-1 Env of isolate 94 KE 105 (pseudovirus) (HIV-1)
[32] = molecular target: HIV-1 Env of isolate MGRM-Chronic-B-008 (HIV-1)
[33] = molecular target: HIV-1 Env of isolate 92UG114 (subtype D), on pseudovirus (HIV-1)
[34] = molecular target: HIV-1 Env of isolate MGRM-D-002 (subtype D), on pseudovirus (HIV-1)
[35] = molecular target: HIV-1 Env of isolate 92WR024 (pseudovirus) (HIV-1)
[36] = molecular target: HIV-1 Env of isolate 93UG077 (pseudovirus) (HIV-1)
[37] = molecular target: HIV-1 Env of isolate APV_17 (HIV-1)
[38] = molecular target: HIV-1 Env of isolate MG RM-A-008 (pseudovirus) (HIV-1)
[39] = molecular target: HIV-1 Env of isolate MG RM-A-010 (pseudovirus) (HIV-1)
[40] = molecular target: HIV-1 Env of isolate 6535.3 (HIV-1)
[41] = molecular target: HIV-1 Env of isolate MG RM-A-011 (pseudovirus) (HIV-1)
[42] = molecular target: HIV-1 Env of isolate 92UG031 (pseudovirus) (HIV-1)
[43] = molecular target: HIV-1 Env of isolate 92WR021 (pseudovirus) (HIV-1)
[44] = molecular target: HIV-1 Env of isolate MGRM-Chronic-B-003 (HIV-1)
[45] = molecular target: HIV-1 Env of isolate 92WR026 (pseudovirus) (HIV-1)
[46] = molecular target: HIV-1 92BR020 envelope glycoprotein (Env) on pseudovirus (HIV-1)
[47] = molecular target: HIV-1 Env of isolate CMU02 (pseudovirus) (HIV-1)
[48] = molecular target: HIV-1 Env of isolate MGRM-Chronic-B-002 (HIV-1)
[49] = molecular target: HIV-1 Env of isolate MGRM-AE-004 (pseudovirus) (HIV-1)
[50] = molecular target: HIV-1 Env of isolate 98CN006 (subtype CRF08 BC), on pseudovirus (HIV-1)
[51] = molecular target: HIV-1 Env of isolate MGRM-D-005 (subtype D), on pseudovirus (HIV-1)
[52] = molecular target: HIV-1 Env of isolate 92RW009 (clade A), on pseudovirus (HIV-1)
[53] = molecular target: HIV-1 Env of isolate 92UG005 (subtype D), on pseudovirus (HIV-1)
[54] = molecular target: HIV-1 Env of isolate MG RM-A-014 (pseudovirus) (HIV-1)
[55] = molecular target: HIV-1 Env of isolate MG RM-A-007 (pseudovirus) (HIV-1)
[56] = molecular target: HIV-1 Env of isolate JRFL (HIV-1)
[57] = molecular target: HIV-1 Env of isolate MGRM-AE-001 (pseudovirus) (HIV-1)
[58] = molecular target: HIV-1 Env of isolate MGRM-D-003 (subtype D), on pseudovirus (HIV-1)
[59] = molecular target: HIV-1 Env of isolate 98CN009 (subtype CRF07_BC), on pseudovirus (HIV-1)

4993_K13 (PGT-141) (antibody), sequence (VH): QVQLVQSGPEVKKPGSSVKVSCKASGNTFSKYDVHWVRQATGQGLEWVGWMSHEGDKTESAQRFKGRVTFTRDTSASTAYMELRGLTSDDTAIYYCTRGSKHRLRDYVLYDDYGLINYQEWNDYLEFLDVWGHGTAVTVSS
4993_K13 (PGT-141) (antibody), sequence (VL): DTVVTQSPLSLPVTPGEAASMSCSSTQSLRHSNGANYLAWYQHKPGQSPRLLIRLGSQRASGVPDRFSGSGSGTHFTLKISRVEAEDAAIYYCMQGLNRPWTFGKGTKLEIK

With 4993_K13 (PGT-141) (antibody) the IC50, pseudovirus neutralization [1] was greater than 50 µg/mL, the IC50, pseudovirus neutralization [2] was 0.371 µg/mL and the IC50, pseudovirus neutralization [3] was greater than 50 µg/mL. The IC50, single-round pseudovirus neutralization [4] was 0.579 µg/mL, the IC50 (µg/mL), pseudovirus neutralization [5] was greater than 50 µg/mL and the IC50 (µg/mL), pseudovirus neutralization [6] was greater than 50 µg/mL. The IC50 [7] was greater than 50 µg/mL, the IC50 (µg/mL), pseudovirus neutralization [8] was 0.001 µg/mL and the IC50 (µg/mL), pseudovirus neutralization [9] was greater than 50 µg/mL. It also gave an IC50, pseudovirus neutralization [10] greater than 50 µg/mL, an IC50 (µg/mL), pseudovirus neutralization [11] of 9.86 µg/mL and an IC50 (µg/mL), pseudovirus neutralization [12] of 11.1 µg/mL. It also gave an IC50 [13] of 0.586 µg/mL, an IC50 [14] greater than 50 µg/mL and an IC50 (µg/mL), pseudovirus neutralization [15] of 2.07 µg/mL. The IC50 (µg/mL), pseudovirus neutralization [16] was greater than 50 µg/mL, the IC50 (µg/mL), pseudovirus neutralization [17] was greater than 50 µg/mL and the IC50, pseudovirus neutralization [18] was greater than 50 µg/mL. The IC50 (ug/ml), neutralizing activity [19] was greater than 10 µg/mL, the IC50 (µg/mL), pseudovirus neutralization [20] was 1.28 µg/mL and the IC50 [21] was greater than 50 µg/mL. It also gave an IC50 [22] greater than 50 µg/mL, an IC50 (µg/mL), pseudovirus neutralization [23] greater than 50 µg/mL and an IC50 [24] of 20.3 µg/mL. It also gave an IC50 (µg/mL), pseudovirus neutralization [25] of 0.019 µg/mL, an IC50 [26] of 14.2 µg/mL and an IC50 (µg/mL), pseudovirus neutralization [27] greater than 50 µg/mL. It also gave an IC50 (µg/mL), pseudovirus neutralization [28] of 0.029 µg/mL, an IC50 (µg/mL), pseudovirus neutralization [29] greater than 50 µg/mL and an IC50, pseudovirus neutralization [30] greater than 50 µg/mL. It also gave an IC50 (µg/mL), pseudovirus neutralization [31] of 0.204 µg/mL, an IC50 [32] greater than 50 µg/mL and an IC50, pseudovirus neutralization [33] greater than 50 µg/mL. For the same substance, the IC50, pseudovirus neutralization [34] was greater than 50 µg/mL, the IC50 (µg/mL), pseudovirus neutralization [35] was 0.175 µg/mL and the IC50 (µg/mL), pseudovirus neutralization [36] was greater than 50 µg/mL. It also gave an IC50 [37] of 0.59 µg/mL, an IC50 (µg/mL), pseudovirus neutralization [38] greater than 50 µg/mL and an IC50 (µg/mL), pseudovirus neutralization [39] of 0.022 µg/mL. The IC50 [40] was greater than 50 µg/mL, the IC50 (µg/mL), pseudovirus neutralization [41] was greater than 50 µg/mL and the IC50 (µg/mL), pseudovirus neutralization [42] was 0.093 µg/mL. The IC50 (µg/mL), pseudovirus neutralization [43] was greater than 50 µg/mL, the IC50 [44] was 0.4 µg/mL and the IC50 (µg/mL), pseudovirus neutralization [45] was 1.78 µg/mL. For the same substance, the IC50 (ug/ml), neutralizing activity [46] was greater than 10 µg/mL, the IC50 (µg/mL), pseudovirus neutralization [47] was greater than 50 µg/mL and the IC50 [48] was greater than 50 µg/mL. The IC50 (µg/mL), pseudovirus neutralization [49] was greater than 50 µg/mL, the IC50, pseudovirus neutralization [50] was greater than 50 µg/mL and the IC50, pseudovirus neutralization [51] was 5.15 µg/mL. The IC50, single-round pseudovirus neutralization [52] was 0.022 µg/mL, the IC50, pseudovirus neutralization [53] was greater than 5 µg/mL and the IC50 (µg/mL), pseudovirus neutralization [54] was 0.628 µg/mL. For the same substance, the IC50 (µg/mL), pseudovirus neutralization [55] was greater than 50 µg/mL, the IC50 [56] was greater than 50 µg/mL and the IC50 (µg/mL), pseudovirus neutralization [57] was greater than 50 µg/mL. For the same substance, the IC50, pseudovirus neutralization [58] was greater than 50 µg/mL and the IC50, pseudovirus neutralization [59] was 1.28 µg/mL.
